According to patent US20220073608A1 (JIANGSU HUAIYU PHARMACEUTICAL, published 2022):

What was measured:
[1] = target: T1, mouse SEMA4D, full length, on CHO-K1 cells (CHO-K1 mSEMA4D) (mouse, UniProt O09126 24-861); assay: FACS, CHO-K1 mSEMA4D cells; Ab 13.3 nM
T1 construct: whole, on cells; also called murine SEMA4D recombinant cells
T1 sequence (looked up): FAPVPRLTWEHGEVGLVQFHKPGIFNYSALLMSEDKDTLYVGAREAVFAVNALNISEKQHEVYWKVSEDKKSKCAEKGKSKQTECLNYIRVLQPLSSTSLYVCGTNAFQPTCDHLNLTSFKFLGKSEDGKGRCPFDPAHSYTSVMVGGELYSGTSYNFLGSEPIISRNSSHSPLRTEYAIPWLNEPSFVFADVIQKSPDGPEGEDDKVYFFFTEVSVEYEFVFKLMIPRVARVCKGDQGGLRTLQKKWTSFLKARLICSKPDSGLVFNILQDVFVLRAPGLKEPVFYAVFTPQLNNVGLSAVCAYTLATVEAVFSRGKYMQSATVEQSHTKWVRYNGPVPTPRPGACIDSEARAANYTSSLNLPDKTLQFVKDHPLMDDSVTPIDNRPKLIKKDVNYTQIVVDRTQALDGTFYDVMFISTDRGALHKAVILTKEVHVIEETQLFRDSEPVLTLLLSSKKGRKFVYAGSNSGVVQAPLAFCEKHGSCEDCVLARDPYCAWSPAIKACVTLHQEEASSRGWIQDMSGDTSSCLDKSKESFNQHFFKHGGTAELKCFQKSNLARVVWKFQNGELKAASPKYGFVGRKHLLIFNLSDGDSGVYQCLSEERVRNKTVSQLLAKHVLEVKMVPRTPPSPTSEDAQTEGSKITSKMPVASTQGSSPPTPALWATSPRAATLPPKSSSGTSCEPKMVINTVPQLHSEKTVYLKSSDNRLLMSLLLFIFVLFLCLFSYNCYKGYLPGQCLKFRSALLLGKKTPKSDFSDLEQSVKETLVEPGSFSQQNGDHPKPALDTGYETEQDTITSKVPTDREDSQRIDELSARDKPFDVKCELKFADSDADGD
Experimental: After the cells were counted, they were diluted with PBS to 2×10⁶ cells per milliliter. After washing, 100 μL of diluted and purified leading antibodies was added to each well and the plate was incubated for 1 hour on ice. […] Cells were washed 2 times by centrifugation with FACS buffer. The cells were suspended with 200 μL of FACS buffer, FACS (FACS Verse, purchased from BD) was used to detect and analyze the results.

[2] = target: T2, human SEMA4D, full length, on CHO-K1 cells (CHO-K1 hSEMA4D) (human, UniProt Q92854 22-862); assay: FACS, CHO-K1 hSEMA4D cells; Ab 0.00427 nM
T2 construct: whole, on cells; also called human SEMA4D recombinant cells
T2 sequence (looked up): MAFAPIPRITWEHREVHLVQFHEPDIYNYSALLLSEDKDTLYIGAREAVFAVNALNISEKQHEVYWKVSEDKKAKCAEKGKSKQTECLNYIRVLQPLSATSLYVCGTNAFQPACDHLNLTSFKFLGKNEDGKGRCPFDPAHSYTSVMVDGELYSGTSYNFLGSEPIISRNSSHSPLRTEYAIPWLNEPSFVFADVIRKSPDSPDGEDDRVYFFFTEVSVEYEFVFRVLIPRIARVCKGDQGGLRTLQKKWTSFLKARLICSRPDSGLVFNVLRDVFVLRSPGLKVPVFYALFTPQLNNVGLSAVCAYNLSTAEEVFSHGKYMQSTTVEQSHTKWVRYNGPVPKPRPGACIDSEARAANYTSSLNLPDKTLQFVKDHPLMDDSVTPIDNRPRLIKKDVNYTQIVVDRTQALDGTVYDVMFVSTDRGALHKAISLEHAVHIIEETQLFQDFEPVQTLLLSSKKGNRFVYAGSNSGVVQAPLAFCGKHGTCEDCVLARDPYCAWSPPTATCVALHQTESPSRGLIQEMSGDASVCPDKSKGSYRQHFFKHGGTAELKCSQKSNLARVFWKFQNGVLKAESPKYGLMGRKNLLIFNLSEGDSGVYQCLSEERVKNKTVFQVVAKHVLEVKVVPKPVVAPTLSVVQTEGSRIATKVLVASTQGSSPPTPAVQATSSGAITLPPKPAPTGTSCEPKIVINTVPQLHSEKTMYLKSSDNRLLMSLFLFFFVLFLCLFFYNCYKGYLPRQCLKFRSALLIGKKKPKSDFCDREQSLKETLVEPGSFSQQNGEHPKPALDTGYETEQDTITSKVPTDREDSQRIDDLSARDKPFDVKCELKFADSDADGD
Experimental: (§1) The medium was aspirated, the cells were washed once with PBS buffer (purchased from Invitrogen), and then treated with cell dissociation fluid (TrypLE™ Express Enzyme, purchased from Life technology), and the cells were collected. After the cells counted, the cells were washed once with PBS phosphate buffer, and diluted to 3×10⁶ cells per milliliter, and added to the 96-well FACS reaction plate as 100 μL per well. 2% (w/w) fetal calf serum was added to PBS phosphate buffer as FACS buffer, with which the cells were washed once by centrifugation at 2000 rpm 4° C. 100 μL of diluted and purified leading antibodies was added to each well and the plate was incubated for 1 hour on ice. […] Cells were washed 2 times by centrifugation with FACS buffer. The cells were suspended with 200 μL of FACS buffer, and FACS (FACS Verse, purchased from BD) was used to detect and analyze the results.

[3] = target: T2, human SEMA4D, full length, on CHO-K1 …; assay: FACS, CHO-K1 hSEMA4D cells; Ab 0.0213 nM
Experimental: as §1

[4] = target: T2, human SEMA4D, full length, on CHO-K1 …; assay: competitive FACS, CHO-K1 hSEMA4D cells; unlabelled Ab 6 ug/mL first, competitor Alexa 488-VX15 0.67 ug/mL
Excerpt: The purified hybridoma SEMA4D antibodies and fully human SEMA4D antibody were subjected to competitive flow cytometry (FACS) to analyze whether the epitopes bound by different antibodies competed with that bound by the reference antibody VX15.
as §1, with “the” for “diluted and purified”, “antibodies and IgG control diluted to a concentration of 6 μg/mL” for “antibodies”

Row | Binder | MFI [1] | MFI [2] | MFI [3] | inhibition rate (%) [4]
1 | 37F11F9 (antibody, V domains shown, Mouse monoclonal antibody purified from hybridoma supernatant on protein A) VH: EVQLQQSGPVLVKPGASVKMSCKASGYTFTDYYMNWVKQSHGKSLEWIGLINPYSGGSTFNQKFKAKATLTVDKSSSSAYMDLNSLTSEDSAVYYCARVGDGYYGVTHGMDYWGQGTSVTVSS VL: DIVMTPSQKFMSTTVGDRVSITCKASQNVGTAVAWYQQKPGQSPTILIYSASNRYTGVPDRFTGSGSGTDFTLTISNMKSEDLADYFCQQYYIYPFTFAAGTKLELK | 30.1 | 51 | 101 | 25%
2 | 32C8F10 (antibody, V domains shown, Mouse monoclonal antibody purified from hybridoma supernatant on protein A) VH: EVQLQQSGAELVRPGASVKLSCTASGFNIKDEYIHWVKQRPEQGLEWIGWIDPANGHTEYASRFQAKATITADTSSNTAYLQLSSLTSEDTAVYYCTTGDYDGFAYWGQGTLVTVST VL: QIVLTQSPAIMSASPGEKVTISCSARSSVSYMYWYQQKPGSSPKPWIYRTSNLASGVPARFSGSGSGTSYSLTISSMEAEDAATYYCQHYHTYPYTFGGGTKLEIK | 30.6 | 86.2 | 218 | 42%
3 | 31G10C5 (antibody, V domains shown, Mouse monoclonal antibody purified from hybridoma supernatant on protein A) VH: EVQLQQSGAELVRPGASVKLSCTASGFNIKDDYIHWVKQRPEQGLEWIGWIDPANGHIEYASNFQAKATITADTSSNTAYLQLSSLTSEDTAVYYCTTGDYDGFTYWGQGTLVTVST VL: QIVLTQSPAIMSASPGEKVTISCSARSSVSYMYWYQQKPGSSPKPWIYRTSNLASGVPARFSGSGSGTSYSLTISSMEAEDAATYYCQHYHTYPYTFGGGTKLEIK | 30.9 | 85.5 | 225 | 42%
4 | 31C11G2 (antibody, V domains shown, Mouse monoclonal antibody purified from hybridoma supernatant on protein A) VH: EVQLQQSGAELVRPGASVKLSCTASGFNIKDEYIHWVKQRPEQGLEWIGWIDPANGHTEYASRFQAKATITADTSSNTAYLQLSSLTSEDTAVYYCTTGDYDGFVYWGQGTLVTVST VL: QIVLTQSPAIMSASPGEKVTIFCSARSSVSYMYWYQQKPGSSPKPWIYRTSNLASGVPARFSGSGSGTSYSLTISSMEAEDAATYYCQHYHTYPYTFGGGTKLEIK | 31.3 | 87.3 | 248 | 44%
5 | 42B7G2 (antibody, V domains shown, Mouse monoclonal antibody purified from hybridoma supernatant on protein A) VH: QVQLQQSGAELARPGASVKLSCKASGYTFTDYGISWVKQRTGQGLEWIGEIYLRNDNSYYNEKFKGKATLTADKSSNTAYMELRSLTSEDSAVYFCARWGDHGNNYEDAMDYWGQGTSVTVSS VL: DIVLTQSPASLAMSLGKRATISCRASESVSIIGSNLIHWYQQKPGQPPKLLIYHASNLETGVPARFSGSGSRTDFTLTIDPVEEDDVAIYYCLQSRKVPYTFGGGTKLEIK | 30.7 | 68.9 | 173 | 15%
6 | 37C4F7 (antibody, V domains shown, Mouse monoclonal antibody purified from hybridoma supernatant on protein A) VH: EFQLQQSGPEVVKPGASVKISCKASGYSFTDYNMNWMKQSKGKSLEWIGVINPNYGTTTYNQNFKGKATLTVDQSSSTAYMQLNSLTSEDSAVYYCARDMYYVYAYYTMDYWGQGTSVTVSS VL: DVVMTQTPLSLPVSLGDQASISCRSSQSLVHSNGHTYLHWYLQRPGQSPTLLIYKVSNRFSGVPDRFSGSGSGTDFTLKISRVEAEDLGVYFCSQGTHVPWTFGGGTKLEIK | 29.8 | 45.4 | 76.6 | 20%
7 | 38H2E3 (antibody, V domains shown, Mouse monoclonal antibody purified from hybridoma supernatant on protein A) VH: EFQLQQSGPEVVKPGASVKISCKASGYSFTDYNMNWMKQSKGKSLEWIGVISPDYGTTTYNQNFKDKATLTVDQSSSTAYMQLNSLTSEDSAVYYCAKDMYYVYAYYTMDYWGHGTSVTVSS VL: DVVMTQTPLSLPVSLGDQASISCRSSQSLVHSNGHTYLHWYLQRPGQSPTLLIYKVSNRFSGVPDRVSGSGSGTDFTLKISRVEAEDLGVYFCSQGTHVPRTFGGGTKLEIK | 31 | 45.4 | 78.7 | 21%
